Changes are numbered by the printed parent chain. Where two headings read alike, the source gives them in different places.
Columns and labels:
Assay in all cases: cell-based or functional assay
[1] = biological target: T1, recombinant human TFPI (tissue factor pathway inhibitor) (human, UniProt P10646 29-304)
[2] = biological target: T1, recombinant human TFPI (tissue factor …); remark: listed apart in the source
[3] = biological target: T1, recombinant human TFPI (tissue factor …); remark: listed apart in the source
[4] = biological target: T1, recombinant human TFPI (tissue factor …); remark: listed apart in the source
[5] = biological target: T1, recombinant human TFPI (tissue factor …); remark: listed apart in the source
[6] = biological target: T1, recombinant human TFPI (tissue factor …); remark: listed apart in the source
[7] = biological target: T1, recombinant human TFPI (tissue factor …); remark: listed apart in the source
[8] = biological target: T1, recombinant human TFPI (tissue factor …); remark: listed apart in the source
[9] = biological target: T1, recombinant human TFPI (tissue factor …); remark: listed apart in the source
[10] = biological target: T1, recombinant human TFPI (tissue factor …); remark: listed apart in the source
[11] = biological target: T1, recombinant human TFPI (tissue factor …); remark: listed apart in the source

B1: clone 11 (antibody, V domains shown)
VH: EVQLVESGGGLVKPGGSLRLSCAASGFTFSSYAMNWVRQAPGKGLEWVGTITTGGSYTYYADSVEGRFTISRDNAKNSLYLQMNSLRAEDTAVYYCARQDGNFLMDYWGQGTLVTVSS
VL: DVVMTQTPLSLPVTLGQPASISCKSSPSLLDIDGKTYLNWLQQRPGQSPKRLIYLVSKLDSGVPDRFTGSGSGTDFTLKISRVEAEDVGVYYCWQGTHFPFTFGQGTKVEIKR
effect of inhibiting TFPI, FXa activity assay, Ab 10 nM [1]: ~81%
effect of inhibiting TFPI, FXa activity assay, Ab 20 nM [1]: ~89%
FXa assay % of FXa alone, 2.5 nM Ab, 10 nM TFPI [2]: 7%
FXa assay % of FXa alone, 5 nM Ab, 10 nM TFPI [2]: 29.6%
FXa assay OD, 2.5 nM Ab, 10 nM TFPI [2]: 0.0575
FXa assay OD, 5 nM Ab, 10 nM TFPI [2]: 0.244
FXa assay OD, 10 nM Ab, 10 nM TFPI [2]: 0.672
FXa assay OD, 20 nM Ab, 10 nM TFPI [2]: 0.734

B2: clone 3007 (antibody, V domains shown)
VH: B1 VH with S30T, G49S, T53L, E65Q
VL: B1 VL with P27Q, I32L
FXa assay % of FXa alone, 2.5 nM Ab, 10 nM TFPI [3]: 3.5%
FXa assay % of FXa alone, 5 nM Ab, 10 nM TFPI [3]: 3.6%
FXa assay % of FXa alone, 10 nM Ab, 10 nM TFPI [3]: 3.6%
FXa assay % of FXa alone, 20 nM Ab, 10 nM TFPI [3]: 3%

B3: clone A24 (antibody, V domains shown)
VH: B1 VH with S30H, G49S, G54R
VL: B1 VL with P27Q, I32V
FXa assay % of FXa alone, 2.5 nM Ab, 10 nM TFPI [4]: 5%
FXa assay % of FXa alone, 20 nM Ab, 10 nM TFPI [4]: 4%

B4: clone A63 (antibody, V domains shown)
VH: B1 VH with G49S, E65Q
VL: B1 VL with P27Q, I32V
FXa assay % of FXa alone, 2.5 nM Ab, 10 nM TFPI [4]: 4.8%
FXa assay % of FXa alone, 5 nM Ab, 10 nM TFPI [4]: 5.3%
FXa assay % of FXa alone, 10 nM Ab, 10 nM TFPI [4]: 4.5%
FXa assay % of FXa alone, 20 nM Ab, 10 nM TFPI [4]: 5.6%

B5: clone 1214 (antibody, V domains shown)
VH: B1 VH with G49S
VL: B1 VL with P27Q, I32V
effect of inhibiting TFPI, FXa activity assay, Ab 10 nM [1]: ~63%
effect of inhibiting TFPI, FXa activity assay, Ab 20 nM [1]: ~77%
FXa assay % of FXa alone, 2.5 nM Ab, 10 nM TFPI [5]: 6.9%
FXa assay % of FXa alone, 5 nM Ab, 10 nM TFPI [5]: 23.2%
FXa assay OD, 2.5 nM Ab, 10 nM TFPI [5]: 0.06
FXa assay OD, 5 nM Ab, 10 nM TFPI [5]: 0.202
FXa assay OD, 10 nM Ab, 10 nM TFPI [5]: 0.545
FXa assay OD, 20 nM Ab, 10 nM TFPI [5]: 0.672

B6: clone 4017 (antibody, V domains shown)
VH: B1 VH with E65Q, N102Y
VL: B1 VL with P27Q
effect of inhibiting TFPI, FXa activity assay, Ab 10 nM [1]: ~70%
effect of inhibiting TFPI, FXa activity assay, Ab 20 nM [1]: ~90%
A405, TF/FVIIa/FX complex assay, Ab 1.56 nM [6]: 0.134
A405, TF/FVIIa/FX complex assay, Ab 3.13 nM [6]: 0.138
A405, TF/FVIIa/FX complex assay, Ab 6.25 nM [6]: 0.15
A405, TF/FVIIa/FX complex assay, Ab 12.5 nM [6]: 0.181
A405, TF/FVIIa/FX complex assay, Ab 25 nM [6]: 0.307
A405, TF/FVIIa/FX complex assay, Ab 50 nM [6]: 0.919
A405, TF/FVIIa/FX complex assay, Ab 100 nM [6]: 0.943
% of Normalized, TF/FVIIa/FX complex assay, Ab 1.56 nM [7]: 14.5%
% of Normalized, TF/FVIIa/FX complex assay, Ab 3.13 nM [7]: 15%
% of Normalized, TF/FVIIa/FX complex assay, Ab 6.25 nM [7]: 16.3%
% of Normalized, TF/FVIIa/FX complex assay, Ab 12.5 nM [7]: 19.7%
% of Normalized, TF/FVIIa/FX complex assay, Ab 25 nM [7]: 33.4%
% of Normalized, TF/FVIIa/FX complex assay, Ab 50 nM [7]: 100%
% of Normalized, TF/FVIIa/FX complex assay, Ab 100 nM [7]: 103%
FXa assay % of FXa alone, 2.5 nM Ab, 10 nM TFPI [8]: 6%
FXa assay % of FXa alone, 5 nM Ab, 10 nM TFPI [8]: 10.6%
FXa assay OD, 2.5 nM Ab, 10 nM TFPI [8]: 0.046
FXa assay OD, 5 nM Ab, 10 nM TFPI [8]: 0.0815
FXa assay OD, 10 nM Ab, 10 nM TFPI [8]: 0.54
FXa assay OD, 20 nM Ab, 10 nM TFPI [8]: 0.696

B7: clone 1021 (antibody, V domains shown)
VH: B1 VH with G49S, E65D, N102H
VL: B1 VL with P27Q
FXa assay % of FXa alone, 2.5 nM Ab, 10 nM TFPI [3]: 4.7%
FXa assay % of FXa alone, 10 nM Ab, 10 nM TFPI [3]: 32.9%
FXa assay % of FXa alone, 20 nM Ab, 10 nM TFPI [3]: 78.7%
FXa assay OD, 2.5 nM Ab, 10 nM TFPI [3]: 0.034
FXa assay OD, 10 nM Ab, 10 nM TFPI [3]: 0.236
FXa assay OD, 20 nM Ab, 10 nM TFPI [3]: 0.566

B8: clone 3024 (antibody, V domains shown)
VH: B1 VH with N35S, G49S, E65Q
VL: B1 VL with P27Q, I32S, F99L
FXa assay % of FXa alone, 2.5 nM Ab, 10 nM TFPI [3]: 3.6%
FXa assay % of FXa alone, 5 nM Ab, 10 nM TFPI [3]: 4.2%
FXa assay % of FXa alone, 10 nM Ab, 10 nM TFPI [3]: 6.6%
FXa assay % of FXa alone, 20 nM Ab, 10 nM TFPI [3]: 32.5%
FXa assay OD, 2.5 nM Ab, 10 nM TFPI [3]: 0.026
FXa assay OD, 20 nM Ab, 10 nM TFPI [3]: 0.234

B9: clone 1015 (antibody, V domains shown)
VH: B1 VH with G49S, Y57H
VL: B1 VL with P27Q
effect of inhibiting TFPI, FXa activity assay, Ab 10 nM [1]: ~71%
effect of inhibiting TFPI, FXa activity assay, Ab 20 nM [1]: ~83%
A405, TF/FVIIa/FX complex assay, Ab 1.56 nM [6]: 0.141
A405, TF/FVIIa/FX complex assay, Ab 3.13 nM [6]: 0.148
A405, TF/FVIIa/FX complex assay, Ab 6.25 nM [6]: 0.158
A405, TF/FVIIa/FX complex assay, Ab 12.5 nM [6]: 0.179
A405, TF/FVIIa/FX complex assay, Ab 25 nM [6]: 0.269
A405, TF/FVIIa/FX complex assay, Ab 50 nM [6]: 0.919
A405, TF/FVIIa/FX complex assay, Ab 100 nM [6]: 0.944
% of Normalized, TF/FVIIa/FX complex assay, Ab 1.56 nM [7]: 15.4%
% of Normalized, TF/FVIIa/FX complex assay, Ab 3.13 nM [7]: 16.1%
% of Normalized, TF/FVIIa/FX complex assay, Ab 6.25 nM [7]: 17.2%
% of Normalized, TF/FVIIa/FX complex assay, Ab 12.5 nM [7]: 19.4%
% of Normalized, TF/FVIIa/FX complex assay, Ab 25 nM [7]: 29.3%
% of Normalized, TF/FVIIa/FX complex assay, Ab 50 nM [7]: 100%
% of Normalized, TF/FVIIa/FX complex assay, Ab 100 nM [7]: 103%
FXa assay % of FXa alone, 2.5 nM Ab, 10 nM TFPI [3]: 6.5%
FXa assay % of FXa alone, 5 nM Ab, 10 nM TFPI [3]: 14%
FXa assay OD, 2.5 nM Ab, 10 nM TFPI [3]: 0.0465
FXa assay OD, 5 nM Ab, 10 nM TFPI [3]: 0.101
FXa assay OD, 10 nM Ab, 10 nM TFPI [3]: 0.512
FXa assay OD, 20 nM Ab, 10 nM TFPI [3]: 0.594

B10: clone 3016 (antibody, V domains shown)
VH: B1 VH with G49S, Y57H
VL: B1 VL with P27Q, I32S, F99L
FXa assay % of FXa alone, 2.5 nM Ab, 10 nM TFPI [3]: 3.7%
FXa assay % of FXa alone, 5 nM Ab, 10 nM TFPI [3]: 4.8%
FXa assay % of FXa alone, 10 nM Ab, 10 nM TFPI [3]: 6.3%
FXa assay % of FXa alone, 20 nM Ab, 10 nM TFPI [3]: 14.2%
FXa assay OD, 20 nM Ab, 10 nM TFPI [3]: 0.102

B11: clone A25 (antibody, V domains shown)
VH: B1 VH with G49S, Y57H
VL: B1 VL with P27Q, I32R
FXa assay % of FXa alone, 2.5 nM Ab, 10 nM TFPI [4]: 5.6%
FXa assay % of FXa alone, 10 nM Ab, 10 nM TFPI [4]: 5.3%

B12: clone 1123 (antibody, V domains shown)
VH: B1 VH with G49S, Y57H, N102H
VL: B1 VL with P27Q
effect of inhibiting TFPI, FXa activity assay, Ab 10 nM [1]: ~69%
effect of inhibiting TFPI, FXa activity assay, Ab 20 nM [1]: ~88%
A405, TF/FVIIa/FX complex assay, Ab 1.56 nM [9]: 0.14
A405, TF/FVIIa/FX complex assay, Ab 3.13 nM [9]: 0.151
A405, TF/FVIIa/FX complex assay, Ab 6.25 nM [9]: 0.15
A405, TF/FVIIa/FX complex assay, Ab 12.5 nM [9]: 0.157
A405, TF/FVIIa/FX complex assay, Ab 25 nM [9]: 0.272
A405, TF/FVIIa/FX complex assay, Ab 50 nM [9]: 0.77
A405, TF/FVIIa/FX complex assay, Ab 100 nM [9]: 0.905
% of Normalized, TF/FVIIa/FX complex assay, Ab 1.56 nM [10]: 14.7%
% of Normalized, TF/FVIIa/FX complex assay, Ab 3.13 nM [10]: 15.8%
% of Normalized, TF/FVIIa/FX complex assay, Ab 6.25 nM [10]: 15.7%
% of Normalized, TF/FVIIa/FX complex assay, Ab 12.5 nM [10]: 16.4%
% of Normalized, TF/FVIIa/FX complex assay, Ab 25 nM [10]: 28.5%
% of Normalized, TF/FVIIa/FX complex assay, Ab 50 nM [10]: 80.7%
% of Normalized, TF/FVIIa/FX complex assay, Ab 100 nM [10]: 94.8%
FXa assay % of FXa alone, 2.5 nM Ab, 10 nM TFPI [11]: 6.5%
FXa assay % of FXa alone, 5 nM Ab, 10 nM TFPI [11]: 14.7%
FXa assay OD, 2.5 nM Ab, 10 nM TFPI [11]: 0.0315
FXa assay OD, 5 nM Ab, 10 nM TFPI [11]: 0.071
FXa assay OD, 10 nM Ab, 10 nM TFPI [11]: 0.332
FXa assay OD, 20 nM Ab, 10 nM TFPI [11]: 0.424

Source: patent US20180030151A1 (MOGAM INSTITUTE FOR BIOMEDICAL RESEARCH, published 2018)
